We go through ten molecules from US9701733B2, “Maspin-based treatment of cancer” (Northwestern University, priority 2011, dated 2017).

Positions count from the first letter of the chain named. Numbers in names are those of the source. Entries after “also recorded” stand apart in the source; their conditions may differ.

For one test, the system named is MCF10A cells. The experiment in a line: Adhesion assay of MCF10A cells on self-deposited (endogenous) matrix. As to conditions: for effect of maspin-derived competitive peptide on MCF10A cell adhesion: cells pre-incubated with peptide, adhesion measured after 30 min, self-deposited matrix; for effect of GST-maspin mutant on MCF10A cell adhesion: compared to wild-type GST-maspin; for effect of GST-maspin mutant on MCF10A cell adhesion / reduction of MCF10A cell adhesion compared to WT GST-maspin: endogenous matrix; for reduction of MCF10A cell adhesion compared to WT GST-maspin: recombinant protein. It is filed as cell-based, human. The procedure: Assays utilizing endogenous ECM proteins generated by MCF10A cells were performed as previously described (Langhofer et al. (1993) J Cell Sci 105 (Pt 3), 753-764; herein incorporated by reference in its entirety). MCF10A cells were plated in 96-well dishes and allowed to reach confluence. Cells were washed with PBS and treated for 5 min with fresh sterile 20 mM NH4OH, followed by extensive water washes. Wells were blocked with heat-denatured BSA (10 mg/ml) for 1 hr at room temperature. Subconfluent cultures were trypsinized, washed with 37° C. serum-free DMEM/F12 medium, and incubated with either antibodies or recombinant proteins (500 nM) for 30 min at 37° C. (when assaying endogenous maspin enzyme-free cell dissociation solution was used instead of trypsin). In all assays, 2.0×10^4 cells were plated in triplicates and allowed to adhere for 30 min at 37° C. The GST protein was used as a control. Wells were washed with 37° C. serum-free DMEM/F12 and adhered cells were fixed with 5% gluteraldehyde and stained with crystal violet dye. Cell adhesion was determined by the reading at 590 nm subtracted by the blank value (determined by BSA-coated wells, 5% of maximal cell adhesion). Cell adhesion was plotted as percentage of the corresponding control value. Cell surface stripping of uPA from uPAR was conducted as previously described (Stoppelli et al. (1986) Cell 45, 675-684; herein incorporated by reference in its entirety). Subconfluent cultures were washed twice with DMEM/F12 supplemented with 20 mM HEPES and 1 mg/ml BSA. Then, cells were incubated with 50 mM glycine-HCl (pH 3.0) with 100 mM NaCl at 25° C. for 2 min and the reaction was halted by neutralizing with 500 mM HEPES (pH 7.4). In the function blocking studies, cells were first incubated with the function blocking antiuPAR or control rabbit IgG for 10 min, uPA and recombinant GST-maspin was added for another 20 min.

The next test concerns HUVEC endothelial cells. The experiment in a line: HUVEC tube formation assay on MatriGel. It is filed as cell-based. As to conditions: for effect on HUVEC tube formation: 1.0 uM; for potency on tube angiogenesis: compared to the G-Helix peptide or GST-maspin (FIG. 7). The procedure: HUVECs were plated on MatriGel for tube formation assay. Various peptides were tested for the potency on tube angiogenesis.
HUVEC endothelial cells were used to test the effect of synthetic maspin peptides on HUVEC tube formation assay in cell culture systems. Random peptide was used as a negative control and maspin G-helix peptide as a positive control. G-Helix was previously found to be effective in inhibiting endothelial cell migration, thereby mimicking maspin effect against angiogenesis. […] At 1.0 uM, G-helix was not effective.

A further test has as its system uPAR-/- MEFs. As to the kind of experiment: 125I-GST-maspin binding to uPAR-/- MEF cell surface. On the set-up: species or system mouse. Particulars: 4° C., 90 min, <500 nM. On the procedure: (§1) Bacterial recombinant GST-maspin was labeled with ^125I as described previously (Conlon, M. (2002) Preparation of ^125I-Labeled Peptides and Proteins with High Specific Activity using IODO-GEN, 2nd Edition Ed. The Protein Protocols Handbook (Walker, J. M., Ed.), Humana Press Inc, Totowa, N.J.; herein incorporated by reference in its entirety). Wild type (WT) and uPAR−/− mouse embryo fibroblasts (MEFs) (5.0×10^4 cells) were cultured in DMEM with 10% FBS on 96-well plate overnight. Cells were chilled on ice for 30 min, washed three times with ice-cold DMEM, and then blocked on ice for 60 min using blocking buffer (DMEM containing 5% heat inactivated BSA). MEFs were incubated with increasing concentrations of ^125I-GST-maspin in blocking buffer at 4° C. for 90 min. After incubation, unbound ^125I-GST-maspin protein was removed by washing three times with blocking buffer. Specific ^125I-GST-maspin binding was determined by subtracting the detected radioactivity by the nonspecific binding (determined in the presence of a 50-fold excess of non-labeled GST-maspin). In the studies evaluating the uPA/uPAR interactions, ^125I-GST-maspin was treated with ABS4A and S-20 (Santa Cruz) antibodies, which block the RCL and N-terminal domains, prior to adding to WT MEF cells. In one set, WT MEF cells were treated with an anti-mouse uPAR antibody (R&D), which blocks uPA binding to uPAR. […]

A further test deals with WT MEF cell surface. The experiment in a line: 125I-GST-maspin binding to wild type MEF cell surface. As to conditions: WT MEFs; 4° C., 90 min; <500 nM. On the set-up: species or system mouse. The procedure: as §1

For the molecule “peptide 169-189: peptide corresponding to maspin residues 169-189 (s3C) (GKWMKKFSESETKECPFRVNK; UniProt P36952 169-189, looked up, fragment)”, the “effect of maspin-derived competitive peptide on MCF10A cell adhesion” value with MCF10A cells is recorded as “not s3C (peptide 169-189) was important”.

Regarding “STANAKVKLSIP (listed as Homo sapiens) [peptide X, synthetic maspin mimetic peptide]”, in the test with HUVEC endothelial cells, the “effect on HUVEC tube formation” value is given as “highly effective” and the “potency on tube angiogenesis” value is “highly potent”.

In the case of “NPSTMANAKVKLSIPK (listed as Homo sapiens) [peptide 260-275]”, the “effect of maspin-derived competitive peptide on MCF10A cell adhesion” value in the test with MCF10A cells is reported as “inhibited cell adhesion”; in the test on MCF10A cells (listed as 260-275 peptide) it was “reduced”.

In the case of “TDTKPVQMMNMEATFCMGNIDSI (listed as Homo sapiens) [190-211]”, the “effect of maspin-derived competitive peptide on MCF10A cell adhesion” value with MCF10A cells is recorded as “inhibited cell adhesion; also recorded: competed with GST-maspin”.

Consider “peptide 181-202: competitive peptide corresponding to maspin amino acid residues 181-202 (KECPFRVNKTDTKPVQMMNMEA; UniProt P36952 181-202, looked up, fragment)”, for which, in the test on MCF10A cells, the “effect of maspin-derived competitive peptide on MCF10A cell adhesion” value is on record as “inhibited cell adhesion; also recorded: competed with GST-maspin”.

“TANAEVKLSIPK (listed as Homo sapiens) [peptide Y, synthetic maspin mimetic peptide]”: in the test on HUVEC endothelial cells, the “effect on HUVEC tube formation” value was “highly effective” and the “potency on tube angiogenesis” value is recorded as “highly potent”.

B1: single mutant (E201K): GST-maspin point mutant E201K (protein, UniProt P36952 1-375, looked up, variant E201K)
Serpin B5: MDALQLANSAFAVDLFKQLCEKEPLGNVLFSPICLSTSLSLAQVGAKGDTANEIGQVLHFENVKDVPFGFQTVTSDVNKLSSFYSLKLIKRLYVDKSLNLSTEFISSTKRPYAKELETVDFKDKLEETKGQINNSIKDLTDGHFENILADNSVNDQTKILVVNAAYFVGKWMKKFSESETKECPFRVNKTDTKPVQMMNMKATFCMGNIDSINCKIIELPFQNKHLSMFILLPKDVEDESTGLEKIEKQLNSESLSQWTNPSTMANAKVKLSIPKFKVEKMIDPKACLENLGLKHIFSEDTSDFSGMSETKGVALSNVIHKVCLEITEDGGDSIEVPGARILQHKDELNADHPFIYIIRHNKTRNIIFFGKFCSP
modifications: GST tag
B1: in the test with MCF10A cells, the “effect of GST-maspin mutant on MCF10A cell adhesion” value (from here on “effect of GST-maspin mutant”) was “inhibited cell adhesion; also recorded: significantly reduced” and the “reduction of MCF10A cell adhesion compared to WT GST-maspin” value (“reduction of MCF10A cell adhesion” below) was 16%.

B2: triple mutant (E201K, K268E, K270E): GST-maspin mutant E201K, K268E, K270E (protein, UniProt P36952 1-375, looked up, variant E201K K268E K270E)
Serpin B5: B1 Serpin B5 with K268E, K270E
modifications: GST fusion
For B2, in the test on MCF10A cells, the “effect of GST-maspin mutant” value is “inhibited cell adhesion” and the “reduction of MCF10A cell adhesion” value is “approximately 28%”.

B3: GST-maspin: Glutathione S-transferase (GST)-tagged recombinant wild-type maspin; 125I-labeled for binding assay (protein, UniProt P36952 1-375, looked up)
Serpin B5: B1 Serpin B5 with K201E
modifications: GST tag; 125I label
Consider B3, for which the “specific 125I-GST-maspin binding to cell surface” value is on record as “absent of any specific 125I-GST-maspin binding” in the test with uPAR-/- MEFs and “displayed specific 125I-GST-maspin binding” in the test with WT MEF cell surface. The “maspin-induced MCF10A cell adhesion after stripping endogenous uPA” value in the test with MCF10A cells (endogenous uPA acid-stripped before GST-maspin) was “substantially blocks”. For the same molecule, the “maspin-mediated adhesion of uPA-stripped MCF10A cells after addition of exogenous uPA” value in the test on MCF10A cells (uPA acid-stripped, exogenous uPA 800 nM) is reported as 154.06 % of GST control.

B4: double mutant (K268E, K270E): GST-maspin mutant K268E, K270E (protein, UniProt P36952 1-375, looked up, variant K268E K270E)
Serpin B5: B1 Serpin B5 with K201E, K268E, K270E
modifications: GST fusion
B4: the “effect of GST-maspin mutant” value was “inhibited cell adhesion” in the test with MCF10A cells and “reduced” with MCF10A cells (listed as double mutant GST maspin (K268E, K270E)). The “reduction of MCF10A cell adhesion” value in the test with MCF10A cells came to 17%.
